These results are taken from patent publication US20140294758A1 (published 2014).

Where only a bound is given, the exact number is not on record here.

Common to all, as to assay: cell-based or functional assay
The target of assay [1] is high affinity IL2 receptor on CTLL-2 mouse T cells (mouse) (UniProt P01590).
In assay [2] the target is intermediate affinity IL2 receptor on TF-1β cells (UniProt P14784).
For assay [3], the target named is T1, high affinity IL2 receptor on CTLL-2 mouse T cells (mouse, UniProt P01590 22-268; P16297 27-539; P34902 23-369).
T1 sequence (looked up) 1: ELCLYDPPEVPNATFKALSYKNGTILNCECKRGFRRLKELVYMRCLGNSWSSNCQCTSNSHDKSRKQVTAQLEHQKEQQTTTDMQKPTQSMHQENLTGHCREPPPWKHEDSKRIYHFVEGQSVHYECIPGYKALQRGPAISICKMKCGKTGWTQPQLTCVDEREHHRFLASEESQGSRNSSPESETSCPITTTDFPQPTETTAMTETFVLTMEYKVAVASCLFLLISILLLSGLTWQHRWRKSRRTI
T1 sequence (looked up) 2: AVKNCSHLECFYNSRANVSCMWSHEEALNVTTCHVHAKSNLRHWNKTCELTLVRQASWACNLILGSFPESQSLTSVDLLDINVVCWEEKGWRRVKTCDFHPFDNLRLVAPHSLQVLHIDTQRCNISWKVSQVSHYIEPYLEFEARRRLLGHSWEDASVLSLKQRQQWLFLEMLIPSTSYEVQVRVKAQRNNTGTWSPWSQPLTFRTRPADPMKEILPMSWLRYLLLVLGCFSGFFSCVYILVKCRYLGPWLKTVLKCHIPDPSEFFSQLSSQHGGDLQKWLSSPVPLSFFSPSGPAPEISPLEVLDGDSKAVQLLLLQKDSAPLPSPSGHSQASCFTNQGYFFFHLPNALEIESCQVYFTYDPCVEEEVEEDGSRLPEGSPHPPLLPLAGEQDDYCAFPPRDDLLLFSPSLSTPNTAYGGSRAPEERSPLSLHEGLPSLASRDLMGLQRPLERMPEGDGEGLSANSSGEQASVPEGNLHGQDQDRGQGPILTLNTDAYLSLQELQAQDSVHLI
T1 sequence (looked up) 3: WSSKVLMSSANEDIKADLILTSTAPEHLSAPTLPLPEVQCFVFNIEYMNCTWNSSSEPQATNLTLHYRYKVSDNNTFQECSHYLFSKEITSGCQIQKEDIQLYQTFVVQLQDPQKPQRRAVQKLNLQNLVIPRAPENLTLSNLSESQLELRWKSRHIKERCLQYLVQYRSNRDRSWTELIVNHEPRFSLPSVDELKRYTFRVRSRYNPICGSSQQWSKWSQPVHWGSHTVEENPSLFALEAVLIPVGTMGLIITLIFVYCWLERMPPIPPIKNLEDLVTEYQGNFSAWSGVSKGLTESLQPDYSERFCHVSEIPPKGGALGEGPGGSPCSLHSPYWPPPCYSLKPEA

The target in assay [4] is T2, intermediate affinity IL2 receptor on TF-1β cells (UniProt P14784 27-551; P31785 23-369).
T2 sequence (looked up) 1: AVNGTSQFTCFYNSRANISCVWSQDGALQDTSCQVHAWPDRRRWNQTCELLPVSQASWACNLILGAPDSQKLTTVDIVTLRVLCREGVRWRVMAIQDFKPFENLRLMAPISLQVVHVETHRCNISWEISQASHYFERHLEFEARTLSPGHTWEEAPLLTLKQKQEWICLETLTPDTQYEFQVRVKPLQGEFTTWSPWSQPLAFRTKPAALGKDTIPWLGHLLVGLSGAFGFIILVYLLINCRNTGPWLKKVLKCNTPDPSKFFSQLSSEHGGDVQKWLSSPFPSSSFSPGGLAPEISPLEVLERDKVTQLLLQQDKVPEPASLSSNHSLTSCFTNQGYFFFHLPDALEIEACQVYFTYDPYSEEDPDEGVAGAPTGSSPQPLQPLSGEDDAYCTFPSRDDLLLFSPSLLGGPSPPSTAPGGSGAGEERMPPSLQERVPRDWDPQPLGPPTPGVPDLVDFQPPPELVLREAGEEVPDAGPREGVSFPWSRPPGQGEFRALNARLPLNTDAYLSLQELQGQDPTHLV
T2 sequence (looked up) 2: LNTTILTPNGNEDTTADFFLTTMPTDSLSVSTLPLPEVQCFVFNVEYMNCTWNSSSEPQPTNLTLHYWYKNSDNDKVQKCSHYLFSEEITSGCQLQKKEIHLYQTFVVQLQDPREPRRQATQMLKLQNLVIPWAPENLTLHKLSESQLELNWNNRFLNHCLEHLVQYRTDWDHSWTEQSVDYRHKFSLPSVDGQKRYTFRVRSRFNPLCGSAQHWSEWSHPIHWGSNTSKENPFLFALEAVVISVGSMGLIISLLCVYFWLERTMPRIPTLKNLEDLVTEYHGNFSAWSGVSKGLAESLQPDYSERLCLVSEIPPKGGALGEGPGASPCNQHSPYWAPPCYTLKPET

On to “ch14.18-IL2-H heavy chain fusion (H-fusion with a chimeric 14.18)”, for which, in assay [1], the Relative Activity High aff/Inter Aff (high affinity part) is 1 and the Selectivity for High Affinity Receptor is 1. Further, the Relative Activity High aff/Inter Aff (intermediate affinity part) in assay [2] amounted to 1.

B1: 14.18-IL2-L containing SEQ ID NO: 5 (other)
light: EIVMTQSPATLSVSPGERATLSCRSSQSLVHRNGNTYLHWYLQKPGQSPKLLIHKVSNRFSGVPDRFSGSGSGTDFTLKISRVEAEDLGVYFCSQSTHVPPLTFGAGTKLELKRTVAAPSVFIFPPSDEQLKSGTASVVCLLNNFYPREAKVQWKVDNALQSGNSQESVTEQDSKDSTYSLSSTLTLSKADYEKHKVYACEVTHQGLSSPVTKSFNRGECAPTSTQLQLEHLLLDLQMILNGINNYKNPKLTRMLTFKFYMPKKATELKHLQCLEEELKPLEEVLNLAQSKNFHLRPRDLISNINVIVLELKGSETTFMCEYADETATIVEFLNRWITFCQSIISTLT
VH: EVQLLQSGPELEKPGASVMISCKASGSSFTGYNMNWVRQNIGKSLEWIGAIDPYYGGTSYNQKFKGRATLTVDKSSSTAYMHLKSLTSEDSAVYYCVSGMEYWGQGTSVTVSS
Turning to B1, in assay [3], the “Relative Activity High aff/Inter Aff (high affinity part)” value amounted to 1 and the “Selectivity for High Affinity Receptor” value was above 100. Further, in assay [4], the “Relative Activity High aff/Inter Aff (intermediate affinity part)” value turned out to be 0.01 and the “TF-1β (Int aff) ED50” value is above 0.5 µg/mL.

B2: 14.18-IL2-L containing SEQ ID NO: 6 (other)
light: IVMTQSPATLSVSPGERATLSCRSSQSLVHRNGNTYLHWYLQKPGQSPKLLIHKVSNRFSGVPDRFSGSGSGTDFTLKISRVEAEDLGVYFCSQSTHVPPLTFGAGTKLELKRTVAAPSVFIFPPSDEQLKSGTASVVCLLNNFYPREAKVQWKVDNALQSGNSQESVTEQDSKDSTYSLSSTLTLSKADYEKHKVYACEVTHQGLSSPVTKSFNRGECTQLQLEHLLLDLQMILNGINNYKNPKLTRMLTFKFYMPKKATELKHLQCLEEELKPLEEVLNLAQSKNFHLRPRDLISNINVIVLELKGSETTFMCEYADETATIVEFLNRWITFCQSIISTLT
VH: B1 VH
As for B2, in assay [3], the “Relative Activity High aff/Inter Aff (high affinity part)” value was found to be 1 and the “Selectivity for High Affinity Receptor” value was above 100. In assay [4], the “Relative Activity High aff/Inter Aff (intermediate affinity part)” value was 0.01 and the “TF-1β (Int aff) ED50” value is above 0.5 µg/mL.
